Reference: patent US7169891B2, “Human pellino polypeptides” (Immunex Corporation, priority 2000, dated 2007)
Entries after “also recorded” stand apart in the source; their conditions may differ. Non-standard residues stand in square brackets, D forms with d. Residues, ends and D or L forms follow the SMILES beside them. Nle = CCCC[C@H](N)C(=O)O

Tests used:
[1] = system: Pellino-1 Cleavage and Relocation; assay: Effect of protease and other inhibitors on PMA-induced Pellino-1 cleavage and relocation in COS7 cells; format: cell-based, monkey; conditions: for Effect on Pellino-1 Cleavage and Relocation: COS7 cells treated with PMA
Protocol: In an effort to determine which protease might be involved in the regulation of Pellino-1 cleavage, COS7 cells transfected with a Pellino-1-expressing construct were treated with PMA together with inhibitors of different classes of proteinases as shown in Table 3 below.

[2] = system: NF-kB-dependent reporter gene; assay: NF-kB-dependent reporter gene (luciferase) assay in transfected COS cells; format: cell-based, monkey; conditions: for Effect on Reporter Gene: NF-kB-dependent reporter gene activity, form of murine Pellino-1 expressed in COS cells
Source text: The murine Pellino-1 coding sequence DNA was fused, in frame at the 3′ end, to DNA encoding the FLAG epitope, followed by an in-frame stop codon. This construct was cloned into the mammalian expression vector pDC304 (identical to pDC302, described in U.S. Pat. No. 5,599,905, issued Feb. 4, 1997, except that the early splice region, consisting of splice donor and acceptor sites of the SV40 viral element, has been removed); and transfected into an IL-1-responsive line of COS-7 cells by the DEAE-dextran method.
In order to assay the effect of the Pellino-1-FLAG polypeptide and other forms of Pellino polypeptides on reporter gene activity, a method essentially as described in Born et al., 1998, J. Biol. Cheni. 273: 29445–29450 (which is incorporated by reference herein) can be used. As one example of this method, Cos7 cells were transiently transfected by the DEAE-dextran method as described (Cosman et al., 1984, Nature 312: 768–771, which is incorporated by reference herein), using 150 ng of the Pellino polypeptide expression construct and 700 ng of the reporter plasmid per 45,000 cells. Two days post-transfection, cells were stimulated with 10 ng/ml IL-1 or 40 ng/ml IL-18 (PeproTech, Inc.) for 4 hours. Cells were lysed and luciferase activity assessed using Reporter Lysis Buffer and Luciferase Assay Reagent (Promega Corp.). IL-8 promoter-reporter and NFkB-dependent reporter constructs may be used as reporter plasmids. Alternatively, the effect of Pellino polypeptide expression may be assayed in COS-1 cells. In an alternative preferred method, COS7 cells were grown in 12-well dishes as described above. The cells were transiently transfected with Pellino test plasmid, 50 ng of reporter plasmid DNA, and empty vector, as required, to a total of 1 micrograms of total DNA per well. After 24 hours, stimulating agents were added in a small amount (less than 0.5% final volume) of medium or dimethyl sulfoxide, and the cells were re-incubated for 5 hours. Cells were lysed in luciferase Reporter Lysis Buffer (Promega, Madison Wis., 0.25 ml per well) and luciferase activity was measured in a EG & G/Berthold luminometer after addition of Luciferase Assay Reagent (Promega) according to the supplier's instructions. All results were normalized to total protein content of the lysates as measured using the micro-BCA assay (Pierce, Rockford, Ill).

CCCC[C@@H](C=O)NC(=O)[C@H](CC(C)C)NC(=O)[C@H](CC(C)C)NC(C)=O [ALLN] (Ac-Leu-Leu-[Nle]-aldehyde)
Effect on Pellino-1 Cleavage and Relocation ([1]; inhibitor 20 microM): none

C[C@@H]1C[C@@H]([C@H](O)CC2CC(=O)NC(=O)C2)C(=O)[C@@H](C)C1 [Cycloheximide]
Effect on Pellino-1 Cleavage and Relocation ([1]; inhibitor 40 microM): inhibition | PMA-induced Pellino-1 cleavage (and relocation) ([1]; treatment of FLAG-Pellino-1-transfected COS7 cells with the inhibitor): largely prevented; also recorded: completely prevented

CC(=O)N[C@@H](CSC(=O)[C@]1([C@@H](O)C(C)C)NC(=O)[C@H](C)[C@@H]1O)C(=O)O [Lactacystin]
Effect on Pellino-1 Cleavage and Relocation ([1]; inhibitor 20 microM): none

B1: wild-type Pellino-2: wild-type Pellino-2 polypeptide expressed in COS cells; species not stated at the result (protein, UniProt Q9HAT8 1-420, looked up)
E3 ubiquitin-protein ligase …: MFSPGQEEHCAPNKEPVKYGELVVLGYNGALPNGDRGRRKSRFALYKRPKANGVKPSTVHVISTPQASKAISCKGQHSISYTLSRNQTVVVEYTHDKDTDMFQVGRSTESPIDFVVTDTISGSQNTDEAQITQSTISRFACRIVCDRNEPYTARIFAAGFDSSKNIFLGEKAAKWKNPDGHMDGLTTNGVLVMHPRGGFTEESQPGVWREISVCGDVYTLRETRSAQQRGKLVESETNVLQDGSLIDLCGATLLWRTADGLFHTPTQKHIEALRQEINAARPQCPVGLNTLAFPSINRKEVVEEKQPWAYLSCGHVHGYHNWGHRSDTEANERECPMCRTVGPYVPLWLGCEAGFYVDAGPPTHAFTPCGHVCSEKSAKYWSQIPLPHGTHAFHAACPFCATQLVGEQNCIKLIFQGPID
NFkB-dependent reporter gene activity ([2]; COS cells transfected with high concentrations of expressing construct): inhibitory effect

B2: dN180-FLAG: murine Pellino-1-FLAG, N-terminal 180 amino acids deleted (protein, UniProt Q8C669 181-418, looked up, fragment)
chain: DGLTTNGVLVMHPRNGFTEDSKPGIWREISVCGNVFSLRETRSAQQRGKMVEIETNQLQDGSLIDLCGATLLWRTAEGLSHTPTVKHLEALRQEINAARPQCPVGFNTLAFPSMKRKDVVDEKQPWVYLNCGHVHGYHNWGNKEERDGKDRECPMCRSVGPYVPLWLGCEAGFYVDAGPPTHAFSPCGHVCSEKTTAYWSQIPLPHGTHTFHAACPFCAHQLAGEQGYIRLIFQGPLD
modifications: FLAG tag
notes: murine Pellino-1-FLAG, N-terminal 180 amino acids deleted
Effect on Reporter Gene [2]: inactive

B3: dN230-FLAG: murine Pellino-1-FLAG, N-terminal 230 amino acids deleted (protein, UniProt Q8C669 231-418, looked up, fragment)
chain: VEIETNQLQDGSLIDLCGATLLWRTAEGLSHTPTVKHLEALRQEINAARPQCPVGFNTLAFPSMKRKDVVDEKQPWVYLNCGHVHGYHNWGNKEERDGKDRECPMCRSVGPYVPLWLGCEAGFYVDAGPPTHAFSPCGHVCSEKTTAYWSQIPLPHGTHTFHAACPFCAHQLAGEQGYIRLIFQGPLD
modifications: FLAG tag
notes: murine Pellino-1-FLAG, N-terminal 230 amino acids deleted
Effect on Reporter Gene [2]: inactive

B4: 1–250: murine Pellino-1, only amino acids 1–250 present (protein, UniProt Q8C669 1-250, looked up, fragment)
chain: MFSPDQENHPSKAPVKYGELIVLGYNGSLPNGDRGRRKSRFALFKRPKANGVKPSTVHIACTPQAAKAISNKDQHSISYTLSRAQTVVVEYTHDSNTDMFQIGRSTESPIDFVVTDTVPGSQSNSDTQSVQSTISRFACRIICERSPPFTARIYAAGFDSSKNIFLGEKAAKWKTSDGQMDGLTTNGVLVMHPRNGFTEDSKPGIWREISVCGNVFSLRETRSAQQRGKMVEIETNQLQDGSLIDLCGAT
Effect on Reporter Gene [2]: inactive

B5: 1–350: murine Pellino-1, only amino acids 1–350 present (protein, UniProt Q8C669 1-350, looked up, fragment)
chain: MFSPDQENHPSKAPVKYGELIVLGYNGSLPNGDRGRRKSRFALFKRPKANGVKPSTVHIACTPQAAKAISNKDQHSISYTLSRAQTVVVEYTHDSNTDMFQIGRSTESPIDFVVTDTVPGSQSNSDTQSVQSTISRFACRIICERSPPFTARIYAAGFDSSKNIFLGEKAAKWKTSDGQMDGLTTNGVLVMHPRNGFTEDSKPGIWREISVCGNVFSLRETRSAQQRGKMVEIETNQLQDGSLIDLCGATLLWRTAEGLSHTPTVKHLEALRQEINAARPQCPVGFNTLAFPSMKRKDVVDEKQPWVYLNCGHVHGYHNWGNKEERDGKDRECPMCRSVGPYVPLWLGCE
Effect on Reporter Gene [2]: inactive

B6: Y154A-FLAG: murine Pellino-1-FLAG, Tyr to Ala substitution at residue 154 (protein, UniProt Q8C669 1-418, looked up, variant Y154A)
E3 ubiquitin-protein ligase …: MFSPDQENHPSKAPVKYGELIVLGYNGSLPNGDRGRRKSRFALFKRPKANGVKPSTVHIACTPQAAKAISNKDQHSISYTLSRAQTVVVEYTHDSNTDMFQIGRSTESPIDFVVTDTVPGSQSNSDTQSVQSTISRFACRIICERSPPFTARIAAAGFDSSKNIFLGEKAAKWKTSDGQMDGLTTNGVLVMHPRNGFTEDSKPGIWREISVCGNVFSLRETRSAQQRGKMVEIETNQLQDGSLIDLCGATLLWRTAEGLSHTPTVKHLEALRQEINAARPQCPVGFNTLAFPSMKRKDVVDEKQPWVYLNCGHVHGYHNWGNKEERDGKDRECPMCRSVGPYVPLWLGCEAGFYVDAGPPTHAFSPCGHVCSEKTTAYWSQIPLPHGTHTFHAACPFCAHQLAGEQGYIRLIFQGPLD
modifications: FLAG tag
Effect on Reporter Gene [2]: Stimulatory

B7: F158A-FLAG: murine Pellino-1-FLAG, Phe to Ala substitution at residue 158 (protein, UniProt Q8C669 1-418, looked up, variant F158A)
E3 ubiquitin-protein ligase …: MFSPDQENHPSKAPVKYGELIVLGYNGSLPNGDRGRRKSRFALFKRPKANGVKPSTVHIACTPQAAKAISNKDQHSISYTLSRAQTVVVEYTHDSNTDMFQIGRSTESPIDFVVTDTVPGSQSNSDTQSVQSTISRFACRIICERSPPFTARIYAAGADSSKNIFLGEKAAKWKTSDGQMDGLTTNGVLVMHPRNGFTEDSKPGIWREISVCGNVFSLRETRSAQQRGKMVEIETNQLQDGSLIDLCGATLLWRTAEGLSHTPTVKHLEALRQEINAARPQCPVGFNTLAFPSMKRKDVVDEKQPWVYLNCGHVHGYHNWGNKEERDGKDRECPMCRSVGPYVPLWLGCEAGFYVDAGPPTHAFSPCGHVCSEKTTAYWSQIPLPHGTHTFHAACPFCAHQLAGEQGYIRLIFQGPLD
modifications: FLAG tag
Effect on Reporter Gene [2]: Slightly

B8: F165L-FLAG: murine Pellino-1-FLAG, Phe to Leu substitution at residue 165 (protein, UniProt Q8C669 1-418, looked up, variant F165L)
E3 ubiquitin-protein ligase …: MFSPDQENHPSKAPVKYGELIVLGYNGSLPNGDRGRRKSRFALFKRPKANGVKPSTVHIACTPQAAKAISNKDQHSISYTLSRAQTVVVEYTHDSNTDMFQIGRSTESPIDFVVTDTVPGSQSNSDTQSVQSTISRFACRIICERSPPFTARIYAAGFDSSKNILLGEKAAKWKTSDGQMDGLTTNGVLVMHPRNGFTEDSKPGIWREISVCGNVFSLRETRSAQQRGKMVEIETNQLQDGSLIDLCGATLLWRTAEGLSHTPTVKHLEALRQEINAARPQCPVGFNTLAFPSMKRKDVVDEKQPWVYLNCGHVHGYHNWGNKEERDGKDRECPMCRSVGPYVPLWLGCEAGFYVDAGPPTHAFSPCGHVCSEKTTAYWSQIPLPHGTHTFHAACPFCAHQLAGEQGYIRLIFQGPLD
modifications: FLAG tag
Effect on Reporter Gene [2]: Stimulatory

B9: dN50-FLAG: murine Pellino-1-FLAG, N-terminal 50 amino acids deleted (protein, UniProt Q8C669 51-418, looked up, fragment)
chain: GVKPSTVHIACTPQAAKAISNKDQHSISYTLSRAQTVVVEYTHDSNTDMFQIGRSTESPIDFVVTDTVPGSQSNSDTQSVQSTISRFACRIICERSPPFTARIYAAGFDSSKNIFLGEKAAKWKTSDGQMDGLTTNGVLVMHPRNGFTEDSKPGIWREISVCGNVFSLRETRSAQQRGKMVEIETNQLQDGSLIDLCGATLLWRTAEGLSHTPTVKHLEALRQEINAARPQCPVGFNTLAFPSMKRKDVVDEKQPWVYLNCGHVHGYHNWGNKEERDGKDRECPMCRSVGPYVPLWLGCEAGFYVDAGPPTHAFSPCGHVCSEKTTAYWSQIPLPHGTHTFHAACPFCAHQLAGEQGYIRLIFQGPLD
modifications: FLAG tag
notes: murine Pellino-1-FLAG, N-terminal 50 amino acids deleted
Effect on Reporter Gene [2]: Inhibitory

B10: dN99-FLAG: murine Pellino-1-FLAG, N-terminal 99 amino acids deleted (protein, UniProt Q8C669 100-418, looked up, fragment)
chain: FQIGRSTESPIDFVVTDTVPGSQSNSDTQSVQSTISRFACRIICERSPPFTARIYAAGFDSSKNIFLGEKAAKWKTSDGQMDGLTTNGVLVMHPRNGFTEDSKPGIWREISVCGNVFSLRETRSAQQRGKMVEIETNQLQDGSLIDLCGATLLWRTAEGLSHTPTVKHLEALRQEINAARPQCPVGFNTLAFPSMKRKDVVDEKQPWVYLNCGHVHGYHNWGNKEERDGKDRECPMCRSVGPYVPLWLGCEAGFYVDAGPPTHAFSPCGHVCSEKTTAYWSQIPLPHGTHTFHAACPFCAHQLAGEQGYIRLIFQGPLD
modifications: FLAG tag
notes: murine Pellino-1-FLAG, N-terminal 99 amino acids deleted
Effect on Reporter Gene [2]: Inhibitory
